Our source for the Kd values is paper PMC12432402 (2025).

The test concerns the target ALFA‐tag binder 4A.

Ends that are not written are not given here. * marks the point of attachment. FITC = O=C1OC2(c3ccc(O)cc3Oc3cc(O)ccc32)c2ccc(NC(=S)*)cc21

A word on the Kd: it is the equilibrium constant for the complex coming apart. Higher therefore signals weaker binding. {FITC}-SRLEEELRRRLTE [N‐terminally FITC‐labeled ALFA‐tag] yielded a Kd of 222 µM.
